# Target: FGFR1 (UniProt P11362)
# Assay: phosphorylation enrichment, bacterial display (enrichment ratio); higher = better substrate or ligand; peptides without Tyr show the background
# 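Further: 11-residue human phosphosite peptides and single-mutation variants displayed on the E. coli surface, counted by deep sequencing, each peptide's frequency after selection divided by its frequency in the unselected input library; frequency after pTyr selection over input frequency; kinase dosed for 20-30% of maximal phosphorylation in three min.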
# FGFR1, sequence (P11362 whole entry, looked up): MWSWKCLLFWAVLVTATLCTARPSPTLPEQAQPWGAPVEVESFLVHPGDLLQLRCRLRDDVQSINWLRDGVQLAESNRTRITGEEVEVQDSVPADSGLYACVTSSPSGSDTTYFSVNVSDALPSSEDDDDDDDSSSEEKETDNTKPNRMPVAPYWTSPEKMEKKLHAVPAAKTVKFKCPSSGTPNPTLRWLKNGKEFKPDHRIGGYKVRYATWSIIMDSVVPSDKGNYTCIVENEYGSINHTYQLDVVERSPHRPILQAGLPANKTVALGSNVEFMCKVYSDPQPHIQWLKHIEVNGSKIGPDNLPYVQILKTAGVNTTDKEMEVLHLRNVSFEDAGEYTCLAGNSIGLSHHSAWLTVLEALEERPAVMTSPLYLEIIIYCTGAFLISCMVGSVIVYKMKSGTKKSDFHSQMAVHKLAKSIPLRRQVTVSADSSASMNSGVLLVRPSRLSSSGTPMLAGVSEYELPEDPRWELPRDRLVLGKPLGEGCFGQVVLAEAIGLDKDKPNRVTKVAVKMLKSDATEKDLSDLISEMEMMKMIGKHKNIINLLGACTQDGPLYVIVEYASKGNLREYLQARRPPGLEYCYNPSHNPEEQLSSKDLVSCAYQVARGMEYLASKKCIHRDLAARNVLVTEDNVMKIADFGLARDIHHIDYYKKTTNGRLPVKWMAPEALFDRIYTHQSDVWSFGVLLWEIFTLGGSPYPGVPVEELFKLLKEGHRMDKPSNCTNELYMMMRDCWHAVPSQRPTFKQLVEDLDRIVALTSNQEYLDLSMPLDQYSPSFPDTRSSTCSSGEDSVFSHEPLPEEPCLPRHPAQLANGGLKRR
row,Sequence,phosphorylation enrichment
1,VHHLVYHHHHH [CACNA1H_Y519],0.55
2,CLMILYRLKER [PTPRR_Y249],0.509
3,GKFFQYDTWKQ [IGF2_Y116],0.407
4,LSGFCYRLSDQ [PDCD6_Y124_G123C],0.932
5,NVFGNYNQQPS [HNRNPA2B1_Y306_D302V],0.356
6,CTLNVYRQLHN [LUZP1_Y1036_S1034N],0.558
7,VVTFSYKPPGN [RBL2_Y544],0.592
8,SLLLSYYLIKW [NUP160_Y773_P768S],2.51
9,LEPHIYAVADV [MYO9A_Y216],0.469
10,KVALPYKPFFF [POLE_Y100_YF],0.375
11,AGREIYESDKC [TTN_Y4424],0.608
12,PVFIKYLPEWT [PSEN1_Y240_L235P],0.515
13,KKLHKYNTQFQ [PIK3R1_Y452_E451K],0.496
14,LFDHIYTTQSD [RET_Y928],2.9
15,DSFATYFRWVL [H2BW1_Y84_R87W],1.98
16,FEKFLYFLPAS [DYNC2H1_Y346_H341Y_YF],0.474
17,NQDRTYYERVR [SPEN_Y632_S635R],0.457

row,Sequence,phosphorylation enrichment
1,PLGKDYRKVEG [MAP1A_Y1909_A1912V],0.518
2,CRERPYGGGGG [FUS_Y526_R521C],0.556
3,QFNIQYSSSAA [ERBB2IP_Y981_YF],0.832
4,FADGVYLALEE [DUOX2_Y70_Q71L_YF],0.881
5,AKQVGYENAGT [PC_Y304],0.394
6,YFVVEYRDQKP [MUC17_Y4332],13.8
7,FAKTQYPDIFA [CRX_Y63_V66I_YF],0.378
8,EHAGEYGAEAL [HBA1_Y25_A20E],0.595
9,RLCQDYDIIGP [ANK1_Y1073_T1075I],2.35
10,AAAAMYTFLPD [MYORG_Y36],13.5
11,RRESQYQENRG [LRCH3_Y354],0.479
12,CKQGKYLNWDA [ATM_Y54_S49C],0.447
13,KGELRYMHSRV [ABCD1_Y281],0.428
14,SFHCSYSEIKD [DCLRE1C_Y322_S320C],0.558
15,AAVDNYCRHNF [HLA-DRB1_Y107_T106N_YF],0.442
16,RSFPSYYTSHV [NEFL_Y442],2.19

# Target: Fyn (UniProt P06241)
# Assay: as above
# Fyn, sequence (P06241 whole entry, looked up): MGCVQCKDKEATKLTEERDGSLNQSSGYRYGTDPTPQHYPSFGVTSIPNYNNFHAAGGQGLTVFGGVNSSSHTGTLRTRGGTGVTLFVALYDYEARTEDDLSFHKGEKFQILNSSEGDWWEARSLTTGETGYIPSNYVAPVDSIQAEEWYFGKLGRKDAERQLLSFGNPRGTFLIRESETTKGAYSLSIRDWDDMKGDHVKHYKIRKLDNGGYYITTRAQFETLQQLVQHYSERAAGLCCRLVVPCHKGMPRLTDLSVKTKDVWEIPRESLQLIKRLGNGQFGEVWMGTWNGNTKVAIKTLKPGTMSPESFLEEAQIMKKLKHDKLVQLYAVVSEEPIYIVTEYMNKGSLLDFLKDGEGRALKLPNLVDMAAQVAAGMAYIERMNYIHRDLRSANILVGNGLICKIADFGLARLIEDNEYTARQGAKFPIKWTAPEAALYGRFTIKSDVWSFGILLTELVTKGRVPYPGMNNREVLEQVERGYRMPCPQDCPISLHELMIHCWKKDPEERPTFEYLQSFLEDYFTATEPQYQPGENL
row,Sequence,phosphorylation enrichment
1,VHHLVYHHHHH [CACNA1H_Y519],0.546
2,CLMILYRLKER [PTPRR_Y249],0.5
3,GKFFQYDTWKQ [IGF2_Y116],0.43
4,LSGFCYRLSDQ [PDCD6_Y124_G123C],0.928
5,NVFGNYNQQPS [HNRNPA2B1_Y306_D302V],0.401
6,CTLNVYRQLHN [LUZP1_Y1036_S1034N],0.459
7,VVTFSYKPPGN [RBL2_Y544],0.42
8,SLLLSYYLIKW [NUP160_Y773_P768S],0.456
9,LEPHIYAVADV [MYO9A_Y216],1.74
10,KVALPYKPFFF [POLE_Y100_YF],0.44
11,AGREIYESDKC [TTN_Y4424],0.538
12,PVFIKYLPEWT [PSEN1_Y240_L235P],0.447
13,KKLHKYNTQFQ [PIK3R1_Y452_E451K],0.355
14,LFDHIYTTQSD [RET_Y928],7.45
15,DSFATYFRWVL [H2BW1_Y84_R87W],2.76
16,FEKFLYFLPAS [DYNC2H1_Y346_H341Y_YF],0.733
17,NQDRTYYERVR [SPEN_Y632_S635R],0.606

row,Sequence,phosphorylation enrichment
1,PLGKDYRKVEG [MAP1A_Y1909_A1912V],0.74
2,CRERPYGGGGG [FUS_Y526_R521C],0.389
3,QFNIQYSSSAA [ERBB2IP_Y981_YF],0.485
4,FADGVYLALEE [DUOX2_Y70_Q71L_YF],2.15
5,AKQVGYENAGT [PC_Y304],0.439
6,YFVVEYRDQKP [MUC17_Y4332],0.786
7,FAKTQYPDIFA [CRX_Y63_V66I_YF],0.434
8,EHAGEYGAEAL [HBA1_Y25_A20E],0.489
9,RLCQDYDIIGP [ANK1_Y1073_T1075I],1.6
10,AAAAMYTFLPD [MYORG_Y36],1.61
11,RRESQYQENRG [LRCH3_Y354],0.637
12,CKQGKYLNWDA [ATM_Y54_S49C],0.418
13,KGELRYMHSRV [ABCD1_Y281],0.303
14,SFHCSYSEIKD [DCLRE1C_Y322_S320C],0.585
15,AAVDNYCRHNF [HLA-DRB1_Y107_T106N_YF],0.587
16,RSFPSYYTSHV [NEFL_Y442],0.775

# Test system: c-Src
# Assay: as above
row,Sequence,phosphorylation enrichment
1,VHHLVYHHHHH [CACNA1H_Y519],0.602
2,CLMILYRLKER [PTPRR_Y249],0.388
3,GKFFQYDTWKQ [IGF2_Y116],0.567
4,LSGFCYRLSDQ [PDCD6_Y124_G123C],0.607
5,NVFGNYNQQPS [HNRNPA2B1_Y306_D302V],0.384
6,CTLNVYRQLHN [LUZP1_Y1036_S1034N],0.473
7,VVTFSYKPPGN [RBL2_Y544],0.423
8,SLLLSYYLIKW [NUP160_Y773_P768S],0.587
9,LEPHIYAVADV [MYO9A_Y216],2.11
10,KVALPYKPFFF [POLE_Y100_YF],0.547
11,AGREIYESDKC [TTN_Y4424],0.536
12,PVFIKYLPEWT [PSEN1_Y240_L235P],0.626
13,KKLHKYNTQFQ [PIK3R1_Y452_E451K],0.416
14,LFDHIYTTQSD [RET_Y928],4.92
15,DSFATYFRWVL [H2BW1_Y84_R87W],3.21
16,FEKFLYFLPAS [DYNC2H1_Y346_H341Y_YF],0.76
17,NQDRTYYERVR [SPEN_Y632_S635R],0.896

row,Sequence,phosphorylation enrichment
1,PLGKDYRKVEG [MAP1A_Y1909_A1912V],1.53
2,CRERPYGGGGG [FUS_Y526_R521C],0.377
3,QFNIQYSSSAA [ERBB2IP_Y981_YF],0.633
4,FADGVYLALEE [DUOX2_Y70_Q71L_YF],2.47
5,AKQVGYENAGT [PC_Y304],0.433
6,YFVVEYRDQKP [MUC17_Y4332],0.728
7,FAKTQYPDIFA [CRX_Y63_V66I_YF],0.415
8,EHAGEYGAEAL [HBA1_Y25_A20E],0.468
9,RLCQDYDIIGP [ANK1_Y1073_T1075I],1.47
10,AAAAMYTFLPD [MYORG_Y36],4.45
11,RRESQYQENRG [LRCH3_Y354],0.475
12,CKQGKYLNWDA [ATM_Y54_S49C],0.366
13,KGELRYMHSRV [ABCD1_Y281],0.48
14,SFHCSYSEIKD [DCLRE1C_Y322_S320C],0.647
15,AAVDNYCRHNF [HLA-DRB1_Y107_T106N_YF],0.349
16,RSFPSYYTSHV [NEFL_Y442],1.12

# Target: EPHB1 (UniProt P54762)
# Assay: as above
# EPHB1, sequence (P54762 whole entry, looked up): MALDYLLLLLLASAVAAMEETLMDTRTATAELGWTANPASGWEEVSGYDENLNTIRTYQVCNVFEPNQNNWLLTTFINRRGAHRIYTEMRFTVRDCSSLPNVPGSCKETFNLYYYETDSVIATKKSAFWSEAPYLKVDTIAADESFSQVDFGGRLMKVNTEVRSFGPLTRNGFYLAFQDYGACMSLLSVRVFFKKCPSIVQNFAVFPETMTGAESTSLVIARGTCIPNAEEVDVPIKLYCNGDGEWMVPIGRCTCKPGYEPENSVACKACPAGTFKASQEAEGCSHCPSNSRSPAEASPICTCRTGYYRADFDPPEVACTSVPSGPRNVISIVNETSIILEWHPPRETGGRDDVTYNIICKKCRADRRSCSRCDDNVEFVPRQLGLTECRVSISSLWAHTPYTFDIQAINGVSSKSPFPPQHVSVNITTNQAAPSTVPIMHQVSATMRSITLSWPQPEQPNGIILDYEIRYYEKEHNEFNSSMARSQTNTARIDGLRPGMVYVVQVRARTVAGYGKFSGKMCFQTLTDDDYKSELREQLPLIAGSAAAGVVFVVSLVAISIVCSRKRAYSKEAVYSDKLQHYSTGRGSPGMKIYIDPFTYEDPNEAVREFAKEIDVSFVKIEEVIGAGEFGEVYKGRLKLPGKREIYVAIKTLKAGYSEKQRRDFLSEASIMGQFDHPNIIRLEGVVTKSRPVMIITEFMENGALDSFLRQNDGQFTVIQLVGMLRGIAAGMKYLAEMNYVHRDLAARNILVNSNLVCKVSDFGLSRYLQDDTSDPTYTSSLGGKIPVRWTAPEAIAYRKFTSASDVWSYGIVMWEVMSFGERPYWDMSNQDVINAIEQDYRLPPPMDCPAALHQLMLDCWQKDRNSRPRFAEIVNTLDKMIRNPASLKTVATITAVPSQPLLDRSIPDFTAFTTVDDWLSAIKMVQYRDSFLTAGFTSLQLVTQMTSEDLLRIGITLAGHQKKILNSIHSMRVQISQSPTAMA
row,Sequence,phosphorylation enrichment
1,VHHLVYHHHHH [CACNA1H_Y519],0.725
2,CLMILYRLKER [PTPRR_Y249],0.444
3,GKFFQYDTWKQ [IGF2_Y116],0.498
4,LSGFCYRLSDQ [PDCD6_Y124_G123C],1.08
5,NVFGNYNQQPS [HNRNPA2B1_Y306_D302V],0.468
6,CTLNVYRQLHN [LUZP1_Y1036_S1034N],0.753
7,VVTFSYKPPGN [RBL2_Y544],0.455
8,SLLLSYYLIKW [NUP160_Y773_P768S],0.673
9,LEPHIYAVADV [MYO9A_Y216],0.822
10,KVALPYKPFFF [POLE_Y100_YF],0.42
11,AGREIYESDKC [TTN_Y4424],0.524
12,PVFIKYLPEWT [PSEN1_Y240_L235P],0.64
13,KKLHKYNTQFQ [PIK3R1_Y452_E451K],0.511
14,LFDHIYTTQSD [RET_Y928],1.28
15,DSFATYFRWVL [H2BW1_Y84_R87W],1.85
16,FEKFLYFLPAS [DYNC2H1_Y346_H341Y_YF],0.8
17,NQDRTYYERVR [SPEN_Y632_S635R],0.411

row,Sequence,phosphorylation enrichment
1,PLGKDYRKVEG [MAP1A_Y1909_A1912V],0.561
2,CRERPYGGGGG [FUS_Y526_R521C],0.552
3,QFNIQYSSSAA [ERBB2IP_Y981_YF],0.51
4,FADGVYLALEE [DUOX2_Y70_Q71L_YF],1.19
5,AKQVGYENAGT [PC_Y304],0.511
6,YFVVEYRDQKP [MUC17_Y4332],1.23
7,FAKTQYPDIFA [CRX_Y63_V66I_YF],0.426
8,EHAGEYGAEAL [HBA1_Y25_A20E],0.423
9,RLCQDYDIIGP [ANK1_Y1073_T1075I],10
10,AAAAMYTFLPD [MYORG_Y36],2.82
11,RRESQYQENRG [LRCH3_Y354],0.431
12,CKQGKYLNWDA [ATM_Y54_S49C],0.552
13,KGELRYMHSRV [ABCD1_Y281],0.396
14,SFHCSYSEIKD [DCLRE1C_Y322_S320C],0.599
15,AAVDNYCRHNF [HLA-DRB1_Y107_T106N_YF],0.753
16,RSFPSYYTSHV [NEFL_Y442],2.37

# From the supplement of paper PMC10065799, “High-throughput profiling of sequence recognition by tyrosine kinases and SH2 domains using bacterial peptide display” (eLife, 2023)
